Results reported in patent publication US20250320297A1.

Target: human PDL1 stably expressed on CHO cells (human) (UniProt Q9NZQ7)
Sequence (Q9NZQ7 19-290 limits assumed): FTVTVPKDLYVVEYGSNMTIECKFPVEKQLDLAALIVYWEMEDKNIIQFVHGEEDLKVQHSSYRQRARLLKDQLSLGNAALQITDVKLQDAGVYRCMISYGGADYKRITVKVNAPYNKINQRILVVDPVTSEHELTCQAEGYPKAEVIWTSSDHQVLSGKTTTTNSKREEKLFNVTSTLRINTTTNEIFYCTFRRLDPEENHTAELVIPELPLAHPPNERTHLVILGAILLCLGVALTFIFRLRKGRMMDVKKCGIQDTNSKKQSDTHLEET

EC50; NFAT luciferase reporter (RLU), CHO cells with human PDL1 co-incubated with Jurkat cells with human PD1 and NFAT reporter, blocking of PDL1/PD1: 0.0532 nM
Substance: Reference Ab 1 (analog of MPDL3280A) (antibody)
